The results in this text go back to patent publication CN111875704A (BAI XIANHONG, dated 2020).

Assay [1] concerns the target T1, 带有His6标签的EGFR胞外区蛋白 (EGFR extracellular domain with His6 tag) (UniProt P00533 25-645, limits assumed).
T1 construct: extracellular domain; also called EGFR保外区蛋白; 抗原; not shown: His6 tag
In words: monoclonal scFv-phage ELISA on coated antigen at 1 μg/ml, Anti-M13 HRP, OD450.

Assay [2] concerns the target T1, 带有His6标签的EGFR胞外区蛋白 (EGFR extracellular …). In words: SPR, BIACORE X100 PLUS; ratio of KD against the reference mR3.

B1: 24H7 scFv (单克隆scFv噬菌体抗体) (scFv)
scFv: QVQLQQPGAELVKPGASVKLSCKASGYTFTNYYIYWFKQRPGQGLEWIGGINPTSGGSNFNEKFKTKATLTVDESSTTAYMQLSSLTSEDSAVYYCTRQGLWFDSDGRGFDFWGQGTTLTVSSGGGGSGGGGSGGGGSDVLMTQIPLSLPVSLGDQASISCRSSQNIVHSNGNTYLDWYLQKPGQSPNLLIYKVSNRFSGVPDRFRGSGSGTDFTLKISRVEAEDLGVYYCFQYSHVPWTFGGGTKLEIKRGQAGQHHHHHH
notes: The phage coat protein fusion is not described
Regarding B1, in assay [1], the binding result was “binds”.

B2: 24H7 全长抗体 (full-length anti-EGFR antibody, IgG1/kappa) (antibody, V domains shown)
VH: QVQLQQPGAELVKPGASVKLSCKASGYTFTNYYIYWFKQRPGQGLEWIGGINPTSGGSNFNEKFKTKATLTVDESSTTAYMQLSSLTSEDSAVYYCTRQGLWFDSDGRGFDFWGQGTTLTVSS
VL: DVLMTQIPLSLPVSLGDQASISCRSSQNIVHSNGNTYLDWYLQKPGQSPNLLIYKVSNRFSGVPDRFRGSGSGTDFTLKISRVEAEDLGVYYCFQYSHVPWTFGGGTKLEIKR
notes: also called 全长24H7抗体
Take B2: the “fold improvement of affinity against mR3” value in assay [2] was 10 倍.
